Assay: soluble on expression in E. coli; label from the status in PepcDB or PDB records

Row | Sequence | soluble on expression in E. coli
1 | MSLRILAIDTATEACSVALWNNGTINAHFELCPREHTQRILPMVQEILAASGASLNEIDALAFGRGPGSFTGVRIGIGIAQGLALGANLPMIGVSTLATMAQGAWRKTGATRVLAAIDARMGEVYWAEYQRDAQGVWQGEETEAVLKPERVGERLKQLSGEWATVGTGWSAWPDLAKECGLTLHDGEVSLPAAEDMLPIASQKLAAGETVAVEHAEPVYLRNEVAWKKLPGKEEGHHHHHH | soluble
2 | MAYSKIRQPKLSDVIEQQLEFLILEGTLRPGEKLPPERELAKQFDVSRPSLREAIQRLEAKGLLLRRQGGGTFVQSSLWQSFSDPLVELLSDHPESQYDLLETRHALEGIAAYYAALRSTDEDKERIRELHHAIELAQQSGDLDAESNAVLQYQIAVTEAAHNVVLLHLLRCMEPMLAQNVRQNFELLYSRREMLPLVSSHRTRIFEAIMAGKPEEAREASHRHLAFIEEILLDRSREESRRERSLRRLEQRKN | soluble
3 | MSLNAHLSAAWPVPVSVAPDALAEIQADFSREWLRLCDEAKRGVLGAPADKRFAGAAWLDDRQRLLMAHAYLLSARAMARLVEAAQVSEPMRNRLRFSVMQWVDAMSPANFLAFNPDAQRAIVESAGRTLQEGMANLLNDIQRGRISQTDETQFEIGRNVATTPGHVVFENSLMQLIQYAPQTAKVCERPLVIVPPNINKYYILDLQPENSFVRYAVEQGHTVFIISWRNPLAADTDGVDTATWSEYLDDAVLKALAVASDISGQPQVNALGFCVGGTMLASALALAQARGERPVASLTLLTSLLDFHDTGILKVFVDEAHALLRDHQYGQRGLMPARDLATTFSFLRPNELVWNYVVSNYLKGKTPPAFDLLFWNADSTNLPGPFFAWYFRNTYLENNLKVPGRARAAGVPLDLTRLDMPAYLYGSREDHIVPWPSAYASTQLLRGPMRFVLGASGHIAGVINPPAKQRRSYWVNESAGEGHHHHHH | not soluble
4 | MTHRTKTRPVKVGNLTIGGNNELIIQSMTTTKTHDVEATVAEIKRLEEAGCQVVRVAVPDERAANAIADIKKQINIPLVADIHFDYRLALKAIEGGIDKVRINPGNIGRRHKVEAVVNAAKERGIPIRIGVNAGSLERHILEKYGYPTADGMVESALHHIKILEDLDFHDIIVSMKASDVNLAIEAYEKAARAFDYPLHLGITESGTLFAGTVKSAAGLGAILNKGIGNTLRISLSADPVEEVKVARELLKSFGLASNAATLISCPTCGRIEIDLISIANEVEEYISTLQVPIKVAVLGCAVNGPGEAREADIGIAGARGEGLLFRKGQVVRKVPEEIMVEELKKEIDVIAAEMAAEREKEKETQEQ | not soluble
5 | MREYKVVVLGSGGVGKSALTVQFVTGTFIEKYDPTIEDFYRKEIEVDSSPSVLEILDTAGTEQFASMRDLYIKNGQGFILVYSLVNQQSFQDIKPMRDQIVRVKRYEKVPLILVGNKVDLEPEREVMSSEGRALAQEWGCPFMETSAKSKSMVDELFAEIVRQMNYSSLPEKQDQCCTTCVVQ | not soluble
6 | MRNEMHLQFSARSENESFARVTVAAFVAQLDPTMDELTEIKTVVSEAVTNAIIHGYNNDPNGIVSISVIIEDGVVHLTVRDEGVGIPDIEEARQPLFTTKPELERSGMGFTIMENFMDEVIVESEVNKGTTVYLKKHIVKSKRYLEGSSF | soluble
7 | MGFKCGIVGLPNVGKSTLFNALTKAGIEAANFPFCTIEPNTGVVPMPDPRLDQLAEIVKPQRTLPTTMEFVDIAGLVKGASKGEGLGNQFLTNIRETEAIGHVVRCFENDNIIHVSGKVNPADDIEVINTELALADLDTCERAIHRVQKKAKGGDKDAKAELAVLEKCLPQLENAGMLRALDLSAEEKAAIRYLSFLTLKPTMYIANVNEDGFENNPYLDQVREIAAKEGSVVVPVCAAVEADIAELDDEERDEFMQELGLEEPGLNRVIRAGYKLLNLQTYFTAGVKEVRAWTIPVGATAPQAAGKIHTDFEKGFIRAQTISFEDFITYKGEQGAKEAGKMRAEGKDYIVKDGDVMNFLFNV | soluble
8 | MIPSQISFNTLPVNATYASETTVDTQKFSDILYSAGCSLKDMAYLSRCLASIHPTLAKNIYETENLSDQKLLHIDCRSTNEIKINIFFGQQREGLIEINSDTVIFSILSSLIDSAISKFQHQIPVNGSVNRELLYEDYTD | not soluble
9 | MPEKYTTPYPARRIHSDGRAEDTEVLLAKECPVKLFLDGKQFTTLFASPLELKELAVGHLITEGILSFKEIAGVEVEGNEVHILTLKGKHPIQDESSRPAGGETKKQIFVNSDAVFDPEALFEGIAYLESDTYKLTRGTHLAALIDKKGKLAVQIVDVGRHNAVDKVVGAAFLRMIDLSQHYMLSTGRQPAYMVTKAARAGIPLVATKAMPFDSGVEAAKKANLCLVGQLRKESMLVFTNEWRVRIAAALEHHHHHH | not soluble
10 | MAHHHHHHMTNFETFQQFYVRDWTPKARPVDAAASVVAPCDGQVLAVNANVESTSLVQVKGLTYGMRSLLQDTPPPLNTDTHRRVAVVLHMRNKDFHHVIAPLSFACEKSIYVPGSLLPTTSAGYHWIPAVLALNERLILQGRSSDKARLPVYMALVGSTLTGRITLYMDKRVRTNYLDPPAYAVHSPYASKPVVARGERLATFNWGSSVVLVMDVPKSCKPLKRPGDVVKAGEALFQF | not soluble
11 | MKKTKVHLISGFLGTGKTTALKSLMAQKDPNEKWVIIVNEFGEIGIDGAVLSDNGIPVAEIAGGCLCCTAGPQMGVTVQKMLRDAKPDRLMIEASGLAHAASVIDELKTKPLDSLLEIGAVFTVVDPRQFINPDYAQQALYKDQIGICDVLVASKTDLCTPEQLAEFHDKAAKLFPPKAKVVEVQNAQLDIQWLDIPVIEKSRYRLKALPDNTMGFQSQGFTFPAGRDFDGEKLTNFFNDLPNMTEGLVRAKGVFQVLGTWVWLNWVDGQWGANQVSWRRDSRFELIAKSFDADLIEQKLKDALELEHHHHHH | not soluble
12 | MNERFGELNFVTPDACSLRRMANKYYPYTMRQSFPLWTSISKEVQIVEGRELPVMQDLADRHPEINKMYGSAEELWENLKTFIDFQGNLQYFEVNPCVSYNHRFFIHKDISSDKKFLYKNDIFLSIQDNLIVRKPVLRNRVSLFMLAYFLKYHEKKLSTSCEFVEYVEKDFDNLINELNDFLLDFIKKPKPVANDANFDWKKVFTRLRNMLPEPMTEEEMSPLADVLKRYFETYPRAQAVGVLNMIEQFCKMMIPRLQKIMDKRPEWFLPNRTKNAKPVLRYFIDGKKPFVMVPEYEIATKEKFQYTDSSFMATGIDTIDLSDISLVASSNGGSLSDFYCIRFNIERTKHTARPIRTTTGTFCKLSADVLLEHLRDLFFGSRVFQSPTRSMFNGYVISMNEIFNSNAQGIYFLEESIIEFVEKISSGLFGTPESKTIRDVPPKGFTVGDVHSELKYLGLLEFFPNISNYAEIAYKKVVAEKKMKILRTCDMFDAVEICMMLAVFNGYPKLAQFLHSQHACHRIQGLQCKKCELEKKHPMMNSWLYPYMEVEEDEKVDSTSSDDEEKRTSTSELAGNGRKSEQKKLAVKDPEPSTMEKETRKSKCCESTKDQLKAFQEQVEALKKEMKELETAMSKNLKN | not soluble
13 | MGSDKIHHHHHHMSEMMIVAVTGGKGGTGKSTLSANLFFYFIENYKTALIDCDVETPNLPYLTGCEDLFLAREVFIEVPNIEEGKTYNYNNVCKEGALLKVGDKLIFIEDLCSGCKACGINSNITFKKKSIGKIYEKKFDNGYLIVGKSNLGERKTAKIVTETKKYGLSKNCEINIVDTAAGTHCNVVRALINADKVLIVTEPTPFGVSDAKRIIKVVEKLNIPYKIVLNRYGISDLKIGYNFKIPYDKRIVECYCKGESFLKYNDLRNYIEEIANWIIWG | not soluble
14 | MDFMISHFCDEQNHQPLYKTRRQSISDSKNGPTLLSSSLPTNDECSDSDTENRLPPETELGNIEYKAKLVNPTTSRIQHLITQMKWRLREGQGEAIYEIGVEDGGIMSGLTDEELNDSLRTLRTMAQALGASMVILTEKDVTVKGSNSRRTVVEVLVRKVPESQQFIEVRLAVVGGCDVGKSTLCGVLTQGCLDDGNGKARIGIFRFPHEVRTGKTSSVCNDVIGFDNRGKLVNYAQNSLEEMVEKSSKLVTLIDLAGDAKYQKTTIHGLTGYTPHFACLVVAADRGITWATREHLGLIAALNIPMFVLITKMDLVDRQGLKKIIKDVSNLVAKAGMTAREKRVKTKRDAVKAAQELCVGSIVPVLAVSSVSGEGFRCLRTLLNCLSTAGTAESRIQLVGLPAFFTIEELYNVPHVGQVVGGMLSEGQLHEGADVLVGPMKDGTFEKITVGSIRRSRQAVGCVNPGEAASISLNLPDGVSLRRGMVLAEIDHQPPVCYEFTANLLLLCHSTKYICEGFQATVFIGSVCTTAIITHIDDADCIRPGKWAVVKMCFAYQPEVIREGSPIILRQGKTKGMGEVLKVFPCTQ | not soluble
